IntAct's records for PubMed 12852788

B1: Lymphocyte antigen 6 complex locus protein G6f (Homo sapiens), Q5SQ64 (parent)
chain: MAVLFLLLFLCGTPQAADNMQAIYVALGEAVELPCPSPPTLHGDEHLSWFCSPAAGSFTTLVAQVQVGRPAPDPGKPGRESRLRLLGNYSLWLEGSKEEDAGRYWCAVLGQHHNYQNWRVYDVLVLKGSQLSARAADGSPCNVLLCSVVPSRRMDSVTWQEGKGPVRGRVQSFWGSEAALLLVCPGEGLSEPRSRRPRIIRCLMTHNKGVSFSLAASIDASPALCAPSTGWDMPWILMLLLTMGQGVVILALSIVLWRQRVRGAPGRDASIPQFKPEIQVYENIHLARLGPPAHKPR

Variants of: B1
Conditions: with grb7_human GRB7, Q14451
grb7_human GRB7, Q14451, sequence (Q14451 whole entry): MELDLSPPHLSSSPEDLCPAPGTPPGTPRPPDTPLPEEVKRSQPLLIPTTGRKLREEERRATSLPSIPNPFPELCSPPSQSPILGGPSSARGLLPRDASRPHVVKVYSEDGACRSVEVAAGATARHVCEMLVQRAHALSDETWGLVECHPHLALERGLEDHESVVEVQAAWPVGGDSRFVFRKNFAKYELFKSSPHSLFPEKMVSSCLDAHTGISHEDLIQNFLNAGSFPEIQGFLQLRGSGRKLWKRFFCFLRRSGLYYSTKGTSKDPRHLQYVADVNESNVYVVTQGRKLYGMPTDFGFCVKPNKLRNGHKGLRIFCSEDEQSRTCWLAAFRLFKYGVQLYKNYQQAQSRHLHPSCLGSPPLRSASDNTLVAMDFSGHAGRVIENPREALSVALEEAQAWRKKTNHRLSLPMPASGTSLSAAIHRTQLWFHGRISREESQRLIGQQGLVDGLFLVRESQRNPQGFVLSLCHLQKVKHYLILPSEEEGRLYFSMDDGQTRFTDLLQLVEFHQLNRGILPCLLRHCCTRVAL

Variant | effect of a mutation on the interaction
Y281F | disrupting interaction strength

Variants of: B1
Conditions: with grb2_human GRB2, P62993
grb2_human GRB2, P62993, sequence (P62993 whole entry, looked up): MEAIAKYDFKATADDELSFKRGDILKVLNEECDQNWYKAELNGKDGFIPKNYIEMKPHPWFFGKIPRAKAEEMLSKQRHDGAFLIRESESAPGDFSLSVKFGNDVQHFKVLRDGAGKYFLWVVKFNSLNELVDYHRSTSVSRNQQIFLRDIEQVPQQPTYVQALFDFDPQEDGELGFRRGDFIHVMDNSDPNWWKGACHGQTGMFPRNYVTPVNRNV

Variant | effect of a mutation on the interaction
Y281F | disrupting interaction strength
